T1: PUF4 RNA-binding domain (Saccharomyces cerevisiae, UniProt P25339 537-888)
T1 sequence: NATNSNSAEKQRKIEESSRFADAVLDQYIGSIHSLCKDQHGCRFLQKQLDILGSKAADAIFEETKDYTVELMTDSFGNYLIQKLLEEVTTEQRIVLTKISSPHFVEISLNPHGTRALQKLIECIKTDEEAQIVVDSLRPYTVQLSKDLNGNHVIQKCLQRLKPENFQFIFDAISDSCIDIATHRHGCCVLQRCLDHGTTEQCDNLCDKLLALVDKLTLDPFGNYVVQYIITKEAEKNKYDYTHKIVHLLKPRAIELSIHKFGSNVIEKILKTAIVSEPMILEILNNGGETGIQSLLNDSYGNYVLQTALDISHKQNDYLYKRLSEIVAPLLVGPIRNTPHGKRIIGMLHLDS


Biological target: T1, PUF4 RNA-binding domain
Experiment: Mg; RNA-MaP; 20 mM Na-HEPES pH 7.4, 30 mM KOAc, 0.75 mM MgCl2, 0.1% Tween-20, 5% glycerol, 0.1 mg/mL BSA, 2 mM DTT; 25 C; 0.0125-409.6 nM protein
Conditions: tags: N-His6-TEV cleaved; C-SNAP kept, Cy3B-labelled; label: tethered on chip by stalled RNA polymerase

Binder | Kd
UCUCUUGCUAUAUAUACUUCUCUU (ssRNA) [Id_ii_S1_P3E.3_K3.2_C3.2_[C-2G]_[T-1C]_H3.2_A3.1_F3.1_T3.2_[T9C]_[A10T]] | 853 nM
UCUCUUGUUAUAUAUAUGUCUCUU (ssRNA) [Id_ii_S1_P3E.3_K3.2_C3.2_[C-2G]_H3.2_A3.1_F3.1_T3.2_[A10G]] | 46.3 nM
UCUCUUUAUAUAUAUAUUUCUCUU (ssRNA) [Id_ii_S1_P3E.3_K3.2_C3.2_[C-2T]_[T-1A]_H3.2_A3.1_F3.1_T3.2_[A10T]] | 329 nM
UCUCUUGUUAUAUAUAUCUCUCUU (ssRNA) [Id_ii_S1_P3E.3_K3.2_C3.2_[C-2G]_H3.2_A3.1_F3.1_T3.2_[A10C]] | 24.8 nM
UCUCUUCGUAUGUUAUCUCUU (ssRNA) [Ib_S1_P4E.1_K4.1_C4.1_H4.1_[T1C]_A4.1_[A6G]_F4.1_T4.1] | > 2300 nM
UCUCUUUCUAUAUAUACAUCUCUU (ssRNA) [Id_ii_S1_P3E.3_K3.2_C3.2_[C-2T]_[T-1C]_H3.2_A3.1_F3.1_T3.2_[T9C]] | 1030 nM
UCUCUUGAUAUAUAUAAUUCUCUU (ssRNA) [Id_ii_S1_P3E.3_K3.2_C3.2_[C-2G]_[T-1A]_H3.2_A3.1_F3.1_T3.2_[T9A]_[A10T]] | 1040 nM
UCUCUUUCUAUAUAUAGUUCUCUU (ssRNA) [Id_ii_S1_P3E.3_K3.2_C3.2_[C-2T]_[T-1C]_H3.2_A3.1_F3.1_T3.2_[T9G]_[A10T]] | 771 nM
UCUCUUGUUAUAUAUAGUUCUCUU (ssRNA) [Id_ii_S1_P3E.3_K3.2_C3.2_[C-2G]_H3.2_A3.1_F3.1_T3.2_[T9G]_[A10T]] | 12.1 nM
UCUCUUUGUAUAUAUAGCUCUCUU (ssRNA) [Id_ii_S1_P3E.3_K3.2_C3.2_[C-2T]_[T-1G]_H3.2_A3.1_F3.1_T3.2_[T9G]_[A10C]] | 3.66 nM
UCUCUUCUUGUAUAUAUAUCUCUU (ssRNA) [Id_ii_S1_P3E.2_K3.1_C3.2_H3.1_A3.1_F3.1_T3.2] | 3.83 nM
UCUCUUCUUGUAUAUACGUCUCUU (ssRNA) [Id_ii_S1_P3E.2_K3.1_C3.2_H3.1_A3.1_F3.1_T3.2_[T9C]_[A10G]] | 10.9 nM
UCUCUUGUUAUAUAUACCUCUCUU (ssRNA) [Id_ii_S1_P3E.3_K3.2_C3.2_[C-2G]_H3.2_A3.1_F3.1_T3.2_[T9C]_[A10C]] | 35.9 nM
UCUCUUUGUAUAUAUAAUUCUCUU (ssRNA) [Id_ii_S1_P3E.3_K3.2_C3.2_[C-2T]_[T-1G]_H3.2_A3.1_F3.1_T3.2_[T9A]_[A10T]] | 8.44 nM
UCUCUUGGUAUAUAUAAUUCUCUU (ssRNA) [Id_ii_S1_P3E.3_K3.2_C3.2_[C-2G]_[T-1G]_H3.2_A3.1_F3.1_T3.2_[T9A]_[A10T]] | 524 nM
UCUCUUUCUAUAUAUACGUCUCUU (ssRNA) [Id_ii_S1_P3E.3_K3.2_C3.2_[C-2T]_[T-1C]_H3.2_A3.1_F3.1_T3.2_[T9C]_[A10G]] | 1450 nM
UCUCUUUCUAUAUAUAUUUCUCUU (ssRNA) [Id_ii_S1_P3E.3_K3.2_C3.2_[C-2T]_[T-1C]_H3.2_A3.1_F3.1_T3.2_[A10T]] | 591 nM
UCUCUUUAUAUAUAUACAUCUCUU (ssRNA) [Id_ii_S1_P3E.3_K3.2_C3.2_[C-2T]_[T-1A]_H3.2_A3.1_F3.1_T3.2_[T9C]] | 384 nM
UCUCUUGCUAUAUAUAUGUCUCUU (ssRNA) [Id_ii_S1_P3E.3_K3.2_C3.2_[C-2G]_[T-1C]_H3.2_A3.1_F3.1_T3.2_[A10G]] | 754 nM
UCUCUUUAUAUAUAUACUUCUCUU (ssRNA) [Id_ii_S1_P3E.3_K3.2_C3.2_[C-2T]_[T-1A]_H3.2_A3.1_F3.1_T3.2_[T9C]_[A10T]] | 172 nM
UCUCUUUCUAUAUAUAUCUCUCUU (ssRNA) [Id_ii_S1_P3E.3_K3.2_C3.2_[C-2T]_[T-1C]_H3.2_A3.1_F3.1_T3.2_[A10C]] | 602 nM

Binder | Kd
UCUCUUGUUAUAUAUACUUCUCUU (ssRNA) [Id_ii_S1_P3E.3_K3.2_C3.2_[C-2G]_H3.2_A3.1_F3.1_T3.2_[T9C]_[A10T]] | 51.5 nM
UCUCUUCUUGUAUAUACUUCUCUU (ssRNA) [Id_ii_S1_P3E.2_K3.1_C3.2_H3.1_A3.1_F3.1_T3.2_[T9C]_[A10T]] | 7.04 nM
UCUCUUGGUAUAUAUAACUCUCUU (ssRNA) [Id_ii_S1_P3E.3_K3.2_C3.2_[C-2G]_[T-1G]_H3.2_A3.1_F3.1_T3.2_[T9A]_[A10C]] | 782 nM
UCUCUUAGUACAUUAUCUCUU (ssRNA) [Ib_S1_P4E.1_K4.1_C4.1_H4.1_[T1A]_A4.1_[T5C]_F4.1_T4.1] | 39.1 nM
UCUCUUGCUAUAUAUAUCUCUCUU (ssRNA) [Id_ii_S1_P3E.3_K3.2_C3.2_[C-2G]_[T-1C]_H3.2_A3.1_F3.1_T3.2_[A10C]] | 545 nM
UCUCUUCUUGUAUAUAAAUCUCUU (ssRNA) [Id_ii_S1_P3E.2_K3.1_C3.2_H3.1_A3.1_F3.1_T3.2_[T9A]] | 8.21 nM
UCUCUUCUUGUAUAUAGUUCUCUU (ssRNA) [Id_ii_S1_P3E.2_K3.1_C3.2_H3.1_A3.1_F3.1_T3.2_[T9G]_[A10T]] | 3.72 nM
UCUCUUCUUGUAUAUAUUUCUCUU (ssRNA) [Id_ii_S1_P3E.2_K3.1_C3.2_H3.1_A3.1_F3.1_T3.2_[A10T]] | 5.12 nM
UCUCUUUGUAUAUAUAUGUCUCUU (ssRNA) [Id_ii_S1_P3E.3_K3.2_C3.2_[C-2T]_[T-1G]_H3.2_A3.1_F3.1_T3.2_[A10G]] | 4.85 nM
UCUCUUUCUAUAUAUAGCUCUCUU (ssRNA) [Id_ii_S1_P3E.3_K3.2_C3.2_[C-2T]_[T-1C]_H3.2_A3.1_F3.1_T3.2_[T9G]_[A10C]] | 620 nM
UCUCUUCUUGUAUAUAAUUCUCUU (ssRNA) [Id_ii_S1_P3E.2_K3.1_C3.2_H3.1_A3.1_F3.1_T3.2_[T9A]_[A10T]] | 8.3 nM
UCUCUUUGUAUAUAUAUCUCUCUU (ssRNA) [Id_ii_S1_P3E.3_K3.2_C3.2_[C-2T]_[T-1G]_H3.2_A3.1_F3.1_T3.2_[A10C]] | 3.36 nM
UCUCUUUAUAUAUAUAGUUCUCUU (ssRNA) [Id_ii_S1_P3E.3_K3.2_C3.2_[C-2T]_[T-1A]_H3.2_A3.1_F3.1_T3.2_[T9G]_[A10T]] | 140 nM
UCUCUUGUUAUAUAUAUAUCUCUU (ssRNA) [Id_ii_S1_P3E.3_K3.2_C3.2_[C-2G]_H3.2_A3.1_F3.1_T3.2] | 41.1 nM
UCUCUUCUUGUAUAUAUCUCUCUU (ssRNA) [Id_ii_S1_P3E.2_K3.1_C3.2_H3.1_A3.1_F3.1_T3.2_[A10C]] | 6.72 nM
UCUCUUCUUGUAUAUAACUCUCUU (ssRNA) [Id_ii_S1_P3E.2_K3.1_C3.2_H3.1_A3.1_F3.1_T3.2_[T9A]_[A10C]] | 8.53 nM
UCUCUUCGUAAAUUAUCUCUU (ssRNA) [Ib_S1_P4E.1_K4.1_C4.1_H4.1_[T1C]_A4.1_[T5A]_F4.1_T4.1] | 139 nM
UCUCUUGAUAUAUAUACCUCUCUU (ssRNA) [Id_ii_S1_P3E.3_K3.2_C3.2_[C-2G]_[T-1A]_H3.2_A3.1_F3.1_T3.2_[T9C]_[A10C]] | 1310 nM
UCUCUUUCUAUAUAUACCUCUCUU (ssRNA) [Id_ii_S1_P3E.3_K3.2_C3.2_[C-2T]_[T-1C]_H3.2_A3.1_F3.1_T3.2_[T9C]_[A10C]] | 1390 nM
UCUCUUUGUAUAUAUAGUUCUCUU (ssRNA) [Id_ii_S1_P3E.3_K3.2_C3.2_[C-2T]_[T-1G]_H3.2_A3.1_F3.1_T3.2_[T9G]_[A10T]] | 2.33 nM
UCUCUUUGUAUAUAUACCUCUCUU (ssRNA) [Id_ii_S1_P3E.3_K3.2_C3.2_[C-2T]_[T-1G]_H3.2_A3.1_F3.1_T3.2_[T9C]_[A10C]] | 10 nM

Binder | Kd
UCUCUUCGUAUUUUAUCUCUU (ssRNA) [Ib_S1_P4E.1_K4.1_C4.1_H4.1_[T1C]_A4.1_[A6T]_F4.1_T4.1] | 591 nM
UCUCUUUGUAUAUAUAUUUCUCUU (ssRNA) [Id_ii_S1_P3E.3_K3.2_C3.2_[C-2T]_[T-1G]_H3.2_A3.1_F3.1_T3.2_[A10T]] | 5 nM
UCUCUUUAUAUAUAUAUCUCUCUU (ssRNA) [Id_ii_S1_P3E.3_K3.2_C3.2_[C-2T]_[T-1A]_H3.2_A3.1_F3.1_T3.2_[A10C]] | 370 nM
UCUCUUUAUAUAUAUAAUUCUCUU (ssRNA) [Id_ii_S1_P3E.3_K3.2_C3.2_[C-2T]_[T-1A]_H3.2_A3.1_F3.1_T3.2_[T9A]_[A10T]] | 642 nM
UCUCUUUCUAUAUAUAAUUCUCUU (ssRNA) [Id_ii_S1_P3E.3_K3.2_C3.2_[C-2T]_[T-1C]_H3.2_A3.1_F3.1_T3.2_[T9A]_[A10T]] | 1010 nM
UCUCUUUCUAUAUAUAACUCUCUU (ssRNA) [Id_ii_S1_P3E.3_K3.2_C3.2_[C-2T]_[T-1C]_H3.2_A3.1_F3.1_T3.2_[T9A]_[A10C]] | 960 nM
UCUCUUCUUGUAUAUACCUCUCUU (ssRNA) [Id_ii_S1_P3E.2_K3.1_C3.2_H3.1_A3.1_F3.1_T3.2_[T9C]_[A10C]] | 7.41 nM
UCUCUUUGUAUAUAUAACUCUCUU (ssRNA) [Id_ii_S1_P3E.3_K3.2_C3.2_[C-2T]_[T-1G]_H3.2_A3.1_F3.1_T3.2_[T9A]_[A10C]] | 4.91 nM
UCUCUUCUUGUAUAUAUGUCUCUU (ssRNA) [Id_ii_S1_P3E.2_K3.1_C3.2_H3.1_A3.1_F3.1_T3.2_[A10G]] | 12.2 nM
UCUCUUUAUAUAUAUAGCUCUCUU (ssRNA) [Id_ii_S1_P3E.3_K3.2_C3.2_[C-2T]_[T-1A]_H3.2_A3.1_F3.1_T3.2_[T9G]_[A10C]] | 148 nM
UCUCUUGCUAUAUAUAACUCUCUU (ssRNA) [Id_ii_S1_P3E.3_K3.2_C3.2_[C-2G]_[T-1C]_H3.2_A3.1_F3.1_T3.2_[T9A]_[A10C]] | 1500 nM
UCUCUUGUUAUAUAUACGUCUCUU (ssRNA) [Id_ii_S1_P3E.3_K3.2_C3.2_[C-2G]_H3.2_A3.1_F3.1_T3.2_[T9C]_[A10G]] | 55.2 nM
UCUCUUUAUAUAUAUACGUCUCUU (ssRNA) [Id_ii_S1_P3E.3_K3.2_C3.2_[C-2T]_[T-1A]_H3.2_A3.1_F3.1_T3.2_[T9C]_[A10G]] | 503 nM
UCUCUUUAUAUAUAUAUGUCUCUU (ssRNA) [Id_ii_S1_P3E.3_K3.2_C3.2_[C-2T]_[T-1A]_H3.2_A3.1_F3.1_T3.2_[A10G]] | 427 nM
UCUCUUAGUAAAUUAUCUCUU (ssRNA) [Ib_S1_P4E.1_K4.1_C4.1_H4.1_[T1A]_A4.1_[T5A]_F4.1_T4.1] | 491 nM
UCUCUUUCUAUAUAUAUGUCUCUU (ssRNA) [Id_ii_S1_P3E.3_K3.2_C3.2_[C-2T]_[T-1C]_H3.2_A3.1_F3.1_T3.2_[A10G]] | 1210 nM
UCUCUUUGUAUAUAUAAGUCUCUU (ssRNA) [Id_ii_S1_P3E.3_K3.2_C3.2_[C-2T]_[T-1G]_H3.2_A3.1_F3.1_T3.2_[T9A]_[A10G]] | 8.25 nM
UCUCUUGUUAUAUAUAAUUCUCUU (ssRNA) [Id_ii_S1_P3E.3_K3.2_C3.2_[C-2G]_H3.2_A3.1_F3.1_T3.2_[T9A]_[A10T]] | 44.6 nM
UCUCUUGUUAUAUAUAAAUCUCUU (ssRNA) [Id_ii_S1_P3E.3_K3.2_C3.2_[C-2G]_H3.2_A3.1_F3.1_T3.2_[T9A]] | 50 nM
UCUCUUGGUAUAUAUAGUUCUCUU (ssRNA) [Id_ii_S1_P3E.3_K3.2_C3.2_[C-2G]_[T-1G]_H3.2_A3.1_F3.1_T3.2_[T9G]_[A10T]] | 124 nM
UCUCUUGAUAUAUAUAGCUCUCUU (ssRNA) [Id_ii_S1_P3E.3_K3.2_C3.2_[C-2G]_[T-1A]_H3.2_A3.1_F3.1_T3.2_[T9G]_[A10C]] | 500 nM
